The text below walks through data of the nanobody polyreactivity screen of Harvey et al. (2022).

The series is described as follows: yeast display, Sf9 membrane polyspecificity reagent, FACS + sequencing; frameworks hold sequencing errors. The method in brief:
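Using colony PCR, genes from sorted yeast display clones were amplified, then sequenced on MiSeq at 2 × 250 and filtered by CDR length. The clones had been stained with 10% biotinylated, detergent-solubilized Sf9 membrane reagent for 1 hour at 4 °C and sorted by FACS into low and high (top ~1%) gates on anti-HA and streptavidin fluorescence. Polyreactivity labels come from the gate of origin.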
Take “QVQLVESGGGLVQAGGSLRLSCAASGLIFGYNAMGWYRQAPGKERELVASINWSTGRTRYADSVKGRFTISRDNAKNTVYLQMNSLKPEDTAVYYCAARLYNPYPYEYWGQGTQVTVSS”: the “polyreactivity (PSR sort gate)” value was “high polyreactivity”.

Consider “QVQLVESGGGLVQAGGSLRLSCAASGSTFRGYAMGWYRQAPGKERDLVAAMSSNGDRTFYADSVKGRFTISRDNAKNTVYLQMNSLKPEDTAVYYCNAVYRGSWQLYGYWGLGTQVTVSS”, for which the “polyreactivity (PSR sort gate)” value is recorded as “high polyreactivity”.

“QVQLVESGGGLVQAGGSLRLICDASGRIFGDNAMGWYRQAPGKEREFVATINGSGGSTYYADSVKGRFTISRDNAKNTVYLQMNSLKPEVTAVYYCFVQQNYGYDYWGQGTQVTVSS”: the “polyreactivity (PSR sort gate)” value is listed as “low polyreactivity”.

With “QVQLVESGGGLVQAGGSLRLRCAASGSIFGAYAMAWYRQAPGKERELVAAINSDISTNYADSVKGRFTISRDNAKNTVYFQMTSVKPEDTAVYYCGVDWPRIYLRYNYWGQGTAVTVSS”, the “polyreactivity (PSR sort gate)” value is recorded as “low polyreactivity”.

On to “QVQLVESGGGLVQAGGSLRLSCAASVYTSSLNAMGWYRQAPGKERELVARITTDGTSTYYADSVKGRFTISRDNAKNTVYLQMNSLKPEDTAVYYCNARYPAYGVRSWYPYAYYYWGQGTQVTVSS”, for which the “polyreactivity (PSR sort gate)” value is given as “low polyreactivity”.

“QVQLVESGGGLVQAGGSLRLSCAASGFIFYAYTMGWYRQAPGKERELVAAISRSGGRTYYADSVKGRFTISRDNAKNTVYLQMNSLKPEDTAVYYCAAEYRGVPRVVVDYDYWGQGTQVTVSS”: the “polyreactivity (PSR sort gate)” value is listed as “high polyreactivity”.

Regarding “QVQLVESGGGLVQAGGSLRLSCDASGRIFGYYAMGWYRQAPGKERELVAAISDGGSTDYADSVKGRFTISRDNAKNTVYLQMNSLKPEDTAVYYCNADRLYLYNVEYDYWGQGTQVTVSS”, the “polyreactivity (PSR sort gate)” value is reported as “low polyreactivity”.

As to “QVQLVESGGGLVQAGGSLRLSCAASGGIIDWYVMGWYRQAPGKERELVAAISYNGGATYYADSVKGRFTISRDNAKNTVYLQMNSLKPEDTAVYYCAAGVTWPYRYVWYVYWGQGTQVTVSS”, the “polyreactivity (PSR sort gate)” value is reported as “low polyreactivity”.

With “QVHLVESGGGLVHAGGSLRLTCAASGITSLRYAMGWYRQAPGKEREFVAAIRTIGGSTYYADSVKGRFTISRDNAKNTVYLEMNSLKPEDTPVYYCAALYFLYRSGSSHLDSWGQGTQVTVSS”, the “polyreactivity (PSR sort gate)” value is given as “high polyreactivity”.

As for “QVQLVESGGGLVQAGGSLRLSCAASGSILYGYAMGWYRQAPGKERELYASITSDGSSNYADSVKGRFTISRDNAKNTVYFQMNSLKPEDTAVYYCAADVRLIWSASLTTSKYDYWGQGTQVTVSS”, the “polyreactivity (PSR sort gate)” value was “low polyreactivity”.

Turning to “QVQLVESGGGLVQAGGSLRLSCAASGRTFRIYAMGWYRQAPGKERELVAAITWGGGSTYYADSVKGRFTISRDNAKNTVYLQMNSLKPEDTAVYYCARVGWSWPRREKYNYWGQGTQVTVSS”, the “polyreactivity (PSR sort gate)” value is given as “high polyreactivity”.

For “QVQLVESGRGLVQAGGSLRLSCAASGSTFVKYAMGWYRPAPGKERELVAAMNRSGASTYYADSVKGRFTISRDNAKNTVYLQMNSLKPEDTAVYYCAARFSWLGYYWGQGTQVTVSS”, the “polyreactivity (PSR sort gate)” value was “high polyreactivity”.

As for “QVQLGDSGGGLVQAGGSLRISCAASGNTFLYYGMGWYRQAPGKDRDLVAAITQSGGTTYYADSVHGRFTISRDNAKYTVYLQMNSQKPEDTAVYYCGATRYYYYTYVYDDRGDYWGQGTQVTVSS”, the “polyreactivity (PSR sort gate)” value is “low polyreactivity”.

With “QVQLVESGGGLVQAGGSLRLSCAASGSTFWSYAMGWYRQATGKERELVAAITSGGRTYYADSVKGRFTISRDNAKNTVYLQMNCLKAEDTAVYYCAAEGSVGLYGMIMHYWGQGTQVTVSS”, the “polyreactivity (PSR sort gate)” value was “high polyreactivity”.

As for “QVQLVESGGGLVQAGGSLRLSCAASGITFDKYAMGWYRQAPGKERQLVAAISGSDGSTYYADSVKGRFTITRDNAKNTVYLQMNSLKPEDTAVYYCAAESEYAGTYEYDYWGQGSQVTVSS”, the “polyreactivity (PSR sort gate)” value is recorded as “low polyreactivity”.

As to “QVQLVESGGGLVQAGGSLRLSCAASGSIFSTYAMGWSRQAPGKERELVAAITTSGGRTYYADSVKGRFTISRDNAKNTVYLQMNSLKPEDTAVYYCNAVRGGRYGLDYWGQGTQVTVSS”, the “polyreactivity (PSR sort gate)” value is recorded as “high polyreactivity”.

For the sequence “QVQLVESGGGLVQAGGSLRLSCAASGYTFKRYAMGWYRQAPGKESDLVASITRRGGSTYYADSVKGRFTISRDNAKNTVNLQMNSLKPEDTAVYDCAKSIPLGYTIYDYWGQGTQVTVSS”, the “polyreactivity (PSR sort gate)” value was “high polyreactivity”.

For the sequence “QVQLVESRGGLVQAGGSLRLTCAASGFTFGFYGMGWYRPAPGKERELVARITWRSGSTYYADSVKGRFTISRDNAKNSVYLKLNSLKPEDTAVYSCAADGFSYYVIRFDYWGQGTQVTVSS”, the “polyreactivity (PSR sort gate)” value was “low polyreactivity”.

As to “QVQLVESGGGLVQAGGSLRLSCAASGLIIYYYAMGWYRQAPGKERELVAAISINGGSTYYADSVKGRFTISRDNAKNTVYLQMNSLIPEDTAVYYCAAFRRRMEYWGQGTQVTVSS”, the “polyreactivity (PSR sort gate)” value is on record as “high polyreactivity”.

With “QVQHVESGGGLVQAGGSLRLSCAASGRTFDWNAMGWYRQAPGKERELVAAITYSGGGTYYADSVKGRFTISRDNAKNTVYLQMNSLKPEETAVYYCAAGYPGTWSYYYWGQGTQVTVSS”, the “polyreactivity (PSR sort gate)” value is listed as “low polyreactivity”.

On to “QVQLVESGGGLVQAGGSLRLSCAASGSIFYSYAMGWYRQAPGKERELVAAINWSGGSTYYADSVKGRFTISRDNAKNTVYLQMKSLKPEDTAVYYCAADYGWGPIYDYWGQGTQVTVSS”, for which the “polyreactivity (PSR sort gate)” value is “low polyreactivity”.

For “QGQLVESGAGLVQAGGSLRLSCAASGFIFYDYVMGWYRQAPGKERELVAAITGSGGGTYYADSVKGRFTISRDNAKNTVYLQMNSLKPEDTAVYYCAADYISVYGYEYWGQGTQVTVSS”, the “polyreactivity (PSR sort gate)” value is on record as “high polyreactivity”.

Take “QDQLVESGRGLVQEGGSLRLSCAASGSIFWSNGMGWYRQAPGKERELVATISSSGSDTYYAASVKGRFTISRDTAKNTVYFQMNSLKPEDTAVYYCNVYSIWGTYDYRGQGTQVTVSS”: the “polyreactivity (PSR sort gate)” value was “low polyreactivity”.

For “QVQLVESGGGLVQAGGSLRLSCAASGFIFASYAMGWYRQAPGTERELVAAISWRGGSTYYADSVKGRFTISRDNAKNTVYLQMNSLKPEDTAVYYCNAYGYDGTGRGYDTLDYWGQGTQVTVSS”, the “polyreactivity (PSR sort gate)” value is listed as “low polyreactivity”.

With “QVQLVESGGGLVQAGGSLRLSCAASGFTFRLYTMGWYRQAPGKERELVAAITYSGDSTYYADSVKGRFTISRDYAKNTVYLQMNSLKPEDTAVYYCAARKYYARYYWGQGSQVTVSS”, the “polyreactivity (PSR sort gate)” value is reported as “high polyreactivity”.

“QVQLVESGGGLVQAGGSLRLSCAASGRIFVGYGMGWYRQAPGKERELVASIDTGGSTYYADSVKGRFTISRDNAKNTVYLQMNSLKPDDTAVYYCAADYQSYTSLTGYHNSEGDPWGQGTQVTVSS”: the “polyreactivity (PSR sort gate)” value was “low polyreactivity”.

Regarding “QVQLVESGGGLVQAGGSLRLSCAASGSTFYTYTMGWYRPGPGKEMELVAAISSSGGDTYYADSVKGRFTISRDNAKNTVYLQMNSLKPEDTAVYYCAALGAFPSLEFDYWGQGTQVTVSS”, the “polyreactivity (PSR sort gate)” value was “low polyreactivity”.

For the sequence “QVQLVDSGGGLVQAGGSLRLSCAASGSTFLYHAMGWYRQAPGKERELLAAINSGTSTTYADSVKGRFTISRDNAKNRVYLQMNSLNPEDTAVYYCAADYYYVNYYGYYTLFDFDYWGQGTQVTVSS”, the “polyreactivity (PSR sort gate)” value is on record as “low polyreactivity”.

Turning to “QVQLVESGGGLVQAGGSLRLSCAASGRIFGANAMGWYRQAPGKERELVAAIDDGVSTNYADSVKGRFTISRDNAKNTVYLQMNSLKPEDTAVYYCAKRSFVGGRGRDSDYWGQGTQVTVSS”, the “polyreactivity (PSR sort gate)” value is “low polyreactivity”.

Take “QVQLVESGGGLVQAGGSLRLSCAASGRTIRFNAMGWYRQAQGKESELVAAISFSGGNTYYADSVKGRFTISRDNAKNTVYIQMNSLKPDDTAVYYCAARFTYRYYNYLKYDYWGKGTQVTVSS”: the “polyreactivity (PSR sort gate)” value was “high polyreactivity”.

Consider “QVQLVESGGGLVQAGGSLRLSCAASGRIFRFYAMGWYRQAPGKERELVAAISSSAGGTYADSVKGRFTISRDYAKNTVYLQMNSRKPEDTAVYYCAARAYALYDWGQGTQVTVSS”, for which the “polyreactivity (PSR sort gate)” value is given as “high polyreactivity”.

Take “QVQLVESGGGLVQAGGSLRLSCAASGSTFRSYAMGWYRPAPGTERELVAAISYSGDSTYYADSVTGRFTISRDIAKNTVFLQMKRLKPVDTAVYYCAALRDWDIQGEPWKRYGYWGQGTQVTVSS”: the “polyreactivity (PSR sort gate)” value was “low polyreactivity”.

With “QVQLVESGGALDQAGGSLRLTCAASGFIFGVNAKGWYRKAPGKERELVAAITARSGSTYYADSVKGRFTISRDNAKNTVYLQMNSLKPEDTAVYYWATPVYRSTYEYDYWGQGTQVTVSS”, the “polyreactivity (PSR sort gate)” value is “low polyreactivity”.

As to “QVQLVESGGGLVQAGGSLRLSCADSGITFAPYAMGWSRQAPGKERELVATITWSGGSTYYADSVKGRFTISRDNAKNTVYLQMNSLKPEDTAVYYCAAYNDTVPSAAHIYESWGQGTQVTVSS”, the “polyreactivity (PSR sort gate)” value is given as “low polyreactivity”.

Take “QVQLVESGGGLVQAGGSLRLSCAASGSIFTAYTMGWYRQAPGKERELVAVISDSSGRTYYADSVKGRFTISRDNAKNTVYLQMNSLKPEVTAVYYCAAEYSDIYEYWGQGTQVTVSS”: the “polyreactivity (PSR sort gate)” value is listed as “low polyreactivity”.

Take “QVQLVESGGCIVQAGGSLRLSCAASGLIFGPYAMGWYRQAPGKERELVAAISARGGSTYYADSVKGRFTISRDNAKNTVYLQMNSLKPEDTAVYYCAARQYSVNTHYGYNYWGQGTQVTVSS”: the “polyreactivity (PSR sort gate)” value is on record as “high polyreactivity”.

As to “QVQLVESGGGLVQAGGRLRLSCAASGRIFSTYAMGWYRQAPGKQRQLVAAINKSGGSTYYADSVKGRFTISRDTAKNTVYLQMNSLKPEDTAVYYCAADQSYPKRLPSFEYWGQGTQVTVSS”, the “polyreactivity (PSR sort gate)” value is recorded as “low polyreactivity”.

Consider “QVHLVESGGGLVQAGGSLRLSCAASGSTFLYYAMGWYRQAPGKERELVAAISSSGGRTYYADSVKGRFTISRDNAKNTVYLQMNSLKPEDTAVYYCAADGRRTSKAGYYYWGQGTQVTVSS”, for which the “polyreactivity (PSR sort gate)” value is listed as “high polyreactivity”.

With “QVQLVESGGGLVQAGGSLRLICAASGSTLAYNAMGWYRQAPGKERELVAGIRGSGGSTYYADSVKGRFTISRDNAKNTVYLQMNSLKPEDTAVYDCAADGLSNVRQMDYWGQGTQVTVSS”, the “polyreactivity (PSR sort gate)” value is “low polyreactivity”.

Take “QVQLVESGGGLVQAGGSHRLSCAASGGIFYFNAMGWYRQAPGKERELVASITWSGGNTYYADSVKGRFTISRDNAKNTVYLQMNSLKPEDTAVYYCAADTQEYRPTYDYWGQGTQVTVSS”: the “polyreactivity (PSR sort gate)” value was “low polyreactivity”.

On to “QVQLVESGGGLVQAGGSLRLSCAASGFTFGYYAMGWSRQAPGKERELVAAISWSGSRTYYADSVKGRFTISRDNAKNTVYLQMNSLKPEDTAVYYCAAQRYRYLYTSTGWQRYDYYYWGQGTQVTVSS”, for which the “polyreactivity (PSR sort gate)” value is given as “high polyreactivity”.
